Experiment [1] has as its target human uPAR on SW480 cells (人结肠癌细胞) (human) (UniProt Q03405). The experiment can be described thus: flow cytometry on SW480 cells, antibody at 5 μg/ml, FITC goat anti-human IgG.
For experiment [2], the target named is 重组人uPAR蛋白 (recombinant human uPAR protein, uPAR-ECD) (human) (UniProt Q03405). The experiment can be described thus: ELISA, plate coated with uPAR-ECD (2 ng/μl), antibody at 0.0625 μg/ml, goat anti-human IgG-HRP. Background: ELISA stands for enzyme-linked immunosorbent assay.
Experiment [3] shares this target. Nature of the experiment: ELISA, plate coated with uPAR-ECD (2 ng/μl), antibody at 0.125 μg/ml, goat anti-human IgG-HRP.

B1: H5L5抗体 (humanized anti-uPAR antibody H5L5) (antibody, human IgG1, kappa, V domains shown)
VH: EVQLVQSGAEVKKPGATVKISCKASGYTFSDFYIHWVRQAPGKGLEWMGWIFHGSDNTEYNEKFRGRVTITADTSTDTGYLELSSLRSEDTAVYYCARWGPHWYFDVWGQGTLVSVSS
VL: MIQMTQSPSSVSASVGDRVTITCRASQDVSYMAWYQQKPGKAPKPWIFEISTLQSGVPSRFSGSGSGTDYSLTINSLQPEDFATYYCQQWNYPFTFGGGTKVEIKR
Consider B1, for which the 平均荧光强度 (MFI) in experiment [1] is 3.17. For the same molecule, the 阳性率 (percent positive cells) in experiment [1] is 99.2%. Also, the OD450 came to 1.42 OD450 in experiment [2] and 1.86 OD450 in experiment [3].

These data come from CN106565845A.
